Consider one substance from PMC4481223.

“And” between values parts separate entries of the source, which are not always exact repeats. Equal values may be shown once.

Assay [1] deals with fused Cp (genetically-fused dimer of the hepatitis B virus core protein assembly domain) (hepatitis B virus). Nature of the assay: SEC; pooled peaks 2-4 of the fused Cp disassembly re-run on a 26/60 Superdex-200 column calibrated with molecular weight standards, 1.0 ml/min; masses from the standard curve. A general note: Size exclusion chromatography separates by hydrodynamic size, large species first.

The target is the same in assay [2]. Nature of the assay: native MS; non-covalent ESI-MS of oligomer samples isolated by SEC, button-dialysed into 100 mM ammonium acetate pH 6.8 (fused Cp samples at pH 9.5).

Take “fused Cp (genetically-fused dimer of the hepatitis B virus core protein assembly domain)”: the stoichiometry N – broadly, the number of molecules, sites or subunits per partner or assembly – in assay [1] was 2 copies and 3 copies and 5 copies; in assay [2] it was 2 and 3.
